Measurements from PMC9482650, “Quantitative fragmentomics allow affinity mapping of interactomes” (Nature Communications, 2022).

T1: NHERF3_4, Q5T2W1
T1 sequence (Q5T2W1 373-468, limits assumed, looked up): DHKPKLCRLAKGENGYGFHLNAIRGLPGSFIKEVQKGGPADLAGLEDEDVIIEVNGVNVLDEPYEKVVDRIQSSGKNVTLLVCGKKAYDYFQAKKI

T2: CARD11, Q9BXL7
T2 sequence (Q9BXL7 662-765, limits assumed, looked up): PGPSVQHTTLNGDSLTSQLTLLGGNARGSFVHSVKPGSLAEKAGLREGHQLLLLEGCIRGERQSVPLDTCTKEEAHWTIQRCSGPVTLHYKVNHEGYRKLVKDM

T3: DFNB31_2, Q9P202
T3 sequence (Q9P202 274-371, limits assumed, looked up): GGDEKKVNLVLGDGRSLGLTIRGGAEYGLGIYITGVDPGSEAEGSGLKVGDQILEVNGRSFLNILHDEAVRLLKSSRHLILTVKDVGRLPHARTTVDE

T4: LIN7A, O14910
T4 sequence (O14910 103-200, limits assumed, looked up): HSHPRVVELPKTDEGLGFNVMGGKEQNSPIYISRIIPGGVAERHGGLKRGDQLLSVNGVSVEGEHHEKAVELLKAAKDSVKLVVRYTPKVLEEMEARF

T5: MPP6, Q9NZW5
T5 sequence (Q9NZW5 125-219, limits assumed, looked up): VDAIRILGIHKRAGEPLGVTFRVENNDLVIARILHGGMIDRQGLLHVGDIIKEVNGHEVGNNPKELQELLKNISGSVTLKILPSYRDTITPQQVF

T6: NHERF3_1, Q5T2W1
T6 sequence (Q5T2W1 4-100, limits assumed, looked up): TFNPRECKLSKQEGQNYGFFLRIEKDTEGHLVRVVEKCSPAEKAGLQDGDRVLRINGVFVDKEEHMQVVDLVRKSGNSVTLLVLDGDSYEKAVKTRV

T7: SIPA1L2, Q9P2F8
T7 sequence (Q9P2F8 945-1036, limits assumed, looked up): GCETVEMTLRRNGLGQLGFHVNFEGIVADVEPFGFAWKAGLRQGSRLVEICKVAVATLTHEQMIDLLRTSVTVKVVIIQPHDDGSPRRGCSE

T8: DFNB31_3, Q9P202
T8 sequence (Q9P202 811-907, limits assumed, looked up): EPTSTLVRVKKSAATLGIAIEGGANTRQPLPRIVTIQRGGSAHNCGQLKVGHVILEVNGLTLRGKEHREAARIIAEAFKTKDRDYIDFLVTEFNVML

T9: MPDZ_5, O75970
T9 sequence (O75970 695-796, limits assumed, looked up): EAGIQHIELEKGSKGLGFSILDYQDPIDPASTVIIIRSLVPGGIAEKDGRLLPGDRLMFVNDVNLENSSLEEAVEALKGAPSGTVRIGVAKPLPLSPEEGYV

T10: PCLO, Q9Y6V0
T10 sequence (Q9Y6V0 4491-4600, limits assumed, looked up): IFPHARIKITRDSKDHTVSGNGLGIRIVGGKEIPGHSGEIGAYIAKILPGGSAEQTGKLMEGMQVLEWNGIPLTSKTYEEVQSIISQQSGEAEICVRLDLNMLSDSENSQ

T11: PDZD2_2, O15018
T11 sequence (O15018 329-429, limits assumed, looked up): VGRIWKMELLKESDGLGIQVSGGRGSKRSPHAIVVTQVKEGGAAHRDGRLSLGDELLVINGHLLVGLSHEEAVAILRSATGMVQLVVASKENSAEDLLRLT

T12: SNTA1, Q13424
T12 sequence (Q13424 82-180, limits assumed, looked up): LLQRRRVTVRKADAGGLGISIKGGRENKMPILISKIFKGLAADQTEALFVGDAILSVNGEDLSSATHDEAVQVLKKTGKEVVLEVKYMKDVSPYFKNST


Columns and labels:
Assay in all cases: holdup assay
Parameters in all cases: key: below the threshold = too weak to quantify, mostly under pKd 3.1 to 4
Conditions in all cases: plain residues with an end cap or a label only (N-terminal biotin on a linker: ado-ado)
GIPC2, Q8TF65 = molecular target: GIPC2, Q8TF65
NHERF3_4, Q5T2W1 = molecular target: T1, NHERF3_4, Q5T2W1
GRASP, Q7Z6J2 = molecular target: GRASP, Q7Z6J2
CARD11, Q9BXL7 = molecular target: T2, CARD11, Q9BXL7
DLG1_2, Q12959 = molecular target: DLG1_2, Q12959
GRIP2_5, Q9C0E4 = molecular target: GRIP2_5, Q9C0E4
DFNB31_2, Q9P202 = molecular target: T3, DFNB31_2, Q9P202
MAST1, Q9Y2H9 = molecular target: MAST1, Q9Y2H9
LIN7A, O14910 = molecular target: T4, LIN7A, O14910
MPP6, Q9NZW5 = molecular target: T5, MPP6, Q9NZW5
FRMPD2_3, Q68DX3 = molecular target: FRMPD2_3, Q68DX3
GRID2IP_2, A4D2P6 = molecular target: GRID2IP_2, A4D2P6
NHERF3_1, Q5T2W1 = molecular target: T6, NHERF3_1, Q5T2W1
FRMPD2_2, Q68DX3 = molecular target: FRMPD2_2, Q68DX3
NHERF2_2, Q15599 = molecular target: NHERF2_2, Q15599
SIPA1L2, Q9P2F8 = molecular target: T7, SIPA1L2, Q9P2F8
MAGI2_2, Q86UL8 = molecular target: MAGI2_2, Q86UL8
DLG2_3, Q15700 = molecular target: DLG2_3, Q15700
DFNB31_3, Q9P202 = molecular target: T8, DFNB31_3, Q9P202
GRIP2_6, Q9C0E4 = molecular target: GRIP2_6, Q9C0E4
MPDZ_5, O75970 = molecular target: T9, MPDZ_5, O75970
PCLO, Q9Y6V0 = molecular target: T10, PCLO, Q9Y6V0
DLG1_1, Q12959 = molecular target: DLG1_1, Q12959
IL16_3, Q14005 = molecular target: IL16_3, Q14005
PDZD2_2, O15018 = molecular target: T11, PDZD2_2, O15018
SNTA1, Q13424 = molecular target: T12, SNTA1, Q13424

GRID2IP_2, A4D2P6, sequence (A4D2P6 272-370): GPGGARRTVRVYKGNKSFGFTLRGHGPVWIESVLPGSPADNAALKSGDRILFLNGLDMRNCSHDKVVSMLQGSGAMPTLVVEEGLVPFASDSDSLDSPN
GRIP2_6, Q9C0E4, sequence (Q9C0E4 648-740): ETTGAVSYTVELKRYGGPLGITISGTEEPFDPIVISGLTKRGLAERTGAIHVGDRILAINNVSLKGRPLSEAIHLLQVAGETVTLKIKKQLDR
GIPC2, Q8TF65, sequence (Q8TF65 112-203): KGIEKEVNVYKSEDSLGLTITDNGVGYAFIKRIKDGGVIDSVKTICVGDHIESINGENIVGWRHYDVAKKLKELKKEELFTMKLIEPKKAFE
GRASP, Q7Z6J2, sequence (Q7Z6J2 96-193): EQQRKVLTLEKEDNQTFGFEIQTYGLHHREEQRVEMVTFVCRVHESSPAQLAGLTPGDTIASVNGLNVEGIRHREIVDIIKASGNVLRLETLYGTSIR
NHERF2_2, Q15599, sequence (Q15599 142-238): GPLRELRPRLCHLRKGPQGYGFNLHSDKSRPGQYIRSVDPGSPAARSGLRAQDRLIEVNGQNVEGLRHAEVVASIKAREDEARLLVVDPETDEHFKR
FRMPD2_3, Q68DX3, sequence (Q68DX3 1073-1166): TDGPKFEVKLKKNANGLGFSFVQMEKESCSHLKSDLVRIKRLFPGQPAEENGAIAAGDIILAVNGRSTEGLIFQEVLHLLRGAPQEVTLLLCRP
IL16_3, Q14005, sequence (Q14005 1107-1207): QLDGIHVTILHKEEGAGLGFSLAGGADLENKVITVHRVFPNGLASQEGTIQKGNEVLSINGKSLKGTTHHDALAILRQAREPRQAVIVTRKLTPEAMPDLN
FRMPD2_2, Q68DX3, sequence (Q68DX3 944-1038): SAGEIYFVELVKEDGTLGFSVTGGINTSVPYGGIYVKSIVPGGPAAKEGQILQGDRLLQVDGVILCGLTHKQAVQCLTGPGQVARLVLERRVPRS
MAST1, Q9Y2H9, sequence (Q9Y2H9 962-1065): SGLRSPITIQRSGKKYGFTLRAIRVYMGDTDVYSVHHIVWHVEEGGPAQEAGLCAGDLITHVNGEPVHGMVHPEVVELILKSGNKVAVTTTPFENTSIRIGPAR
GRIP2_5, Q9C0E4, sequence (Q9C0E4 544-642): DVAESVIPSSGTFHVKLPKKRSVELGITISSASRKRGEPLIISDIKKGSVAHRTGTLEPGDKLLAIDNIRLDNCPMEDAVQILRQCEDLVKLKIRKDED
MAGI2_2, Q86UL8, sequence (Q86UL8 410-522): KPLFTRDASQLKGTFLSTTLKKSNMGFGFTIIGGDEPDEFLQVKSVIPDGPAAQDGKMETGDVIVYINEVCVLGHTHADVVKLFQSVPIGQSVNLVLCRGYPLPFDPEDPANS

Row | Binder | pKd (GIPC2, Q8TF65) | pKd (NHERF3_4, Q5T2W1) | pKd (GRASP, Q7Z6J2) | pKd (CARD11, Q9BXL7) | pKd (DLG1_2, Q12959) | pKd (GRIP2_5, Q9C0E4) | pKd (DFNB31_2, Q9P202) | pKd (MAST1, Q9Y2H9) | pKd (LIN7A, O14910) | pKd (MPP6, Q9NZW5) | pKd (FRMPD2_3, Q68DX3) | pKd (GRID2IP_2, A4D2P6) | pKd (NHERF3_1, Q5T2W1) | pKd (FRMPD2_2, Q68DX3) | pKd (NHERF2_2, Q15599) | pKd (SIPA1L2, Q9P2F8) | pKd (MAGI2_2, Q86UL8) | pKd (DLG2_3, Q15700) | pKd (DFNB31_3, Q9P202) | pKd (GRIP2_6, Q9C0E4) | other results
1 | PKRSFIESNV [TANC1, Q9C0D5] | 3.83 | below the threshold | below the threshold | below the threshold | 4.96 | below the threshold | below the threshold | 4.7 | 3.49 | 3.76 | below the threshold | 3.53 | 4.3 | 3.8 | below the threshold | below the threshold | 4.81 | 4.28 | below the threshold | below the threshold | pKd (MPDZ_5, O75970): below the threshold; pKd (PCLO, Q9Y6V0): below the threshold; pKd (DLG1_1, Q12959): 4.69; pKd (IL16_3, Q14005): below the threshold; pKd (PDZD2_2, O15018): 4.81; pKd (SNTA1, Q13424): 4.77
2 | IPLDGETEEL [MYOZ1, Q9NP98] | below the threshold | below the threshold | 3.74 | below the threshold | below the threshold | below the threshold | below the threshold | 4.1 | below the threshold | below the threshold | below the threshold | below the threshold | 3.48 | below the threshold | 3.96 | below the threshold | below the threshold | below the threshold | below the threshold | below the threshold | pKd (MPDZ_5, O75970): below the threshold; pKd (PCLO, Q9Y6V0): below the threshold; pKd (DLG1_1, Q12959): below the threshold; pKd (IL16_3, Q14005): below the threshold; pKd (PDZD2_2, O15018): below the threshold; pKd (SNTA1, Q13424): below the threshold
3 | DDEDRLVIEI [ZNF831, Q5JPB2] | below the threshold | below the threshold | 3.53 | below the threshold | 3.56 | below the threshold | below the threshold | below the threshold | below the threshold | below the threshold | below the threshold | below the threshold | below the threshold | below the threshold | below the threshold | below the threshold | below the threshold | 3.65 | 4.12 | below the threshold | pKd (MPDZ_5, O75970): below the threshold; pKd (PCLO, Q9Y6V0): below the threshold; pKd (DLG1_1, Q12959): below the threshold; pKd (IL16_3, Q14005): below the threshold; pKd (PDZD2_2, O15018): 3.75; pKd (SNTA1, Q13424): below the threshold
4 | RHGSCVETSL [TMEM151B, Q8IW70] | 3.92 | 3.95 | 4.21 | below the threshold | 4.88 | below the threshold | below the threshold | 5.12 | 4.04 | below the threshold | below the threshold | 4.36 | 5.38 | 3.57 | 4.75 | below the threshold | 3.66 | 4.19 | below the threshold | below the threshold | pKd (MPDZ_5, O75970): below the threshold; pKd (PCLO, Q9Y6V0): below the threshold; pKd (DLG1_1, Q12959): 4.23; pKd (IL16_3, Q14005): below the threshold; pKd (PDZD2_2, O15018): 3.56; pKd (SNTA1, Q13424): 4.82
5 | QMNQTLPVQV [EPHB3, P54753] | below the threshold | 3.48 | below the threshold | below the threshold | below the threshold | below the threshold | below the threshold | 3.93 | below the threshold | below the threshold | below the threshold | 3.58 | 3.48 | below the threshold | 3.51 | 3.5 | below the threshold | below the threshold | below the threshold | below the threshold | pKd (MPDZ_5, O75970): 3.84; pKd (PCLO, Q9Y6V0): below the threshold; pKd (DLG1_1, Q12959): below the threshold; pKd (IL16_3, Q14005): below the threshold; pKd (PDZD2_2, O15018): below the threshold; pKd (SNTA1, Q13424): below the threshold
